Results published in the supplement of paper PMC12042874.
± gives the uncertainty stated by the source.

Test: amyloid nucleation score (Sup35N fusion, yeast selection) (log enrichment); library NNK1; higher = more nucleation; inactive = no reads after selection
In short: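 Using DiMSum, nucleation scores were taken as the log enrichment of output over input reads, centred on the mode score of non-aggregating sequences. The input and output reads came from Illumina sequencing of plasmid inserts, with sequences under 100 input reads excluded. The yeast were psi-negative, expressed Sup35N fused to peptides of 20 random codons, were induced with 100 μM copper sulfate for 24 hours, and were grown 7 days at 30°C on medium lacking adenine and uracil.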

Substance	amyloid nucleation score
KRTAHRMVRSCSLWKVRYRQ	0.462 ± 1.2
KRVSRNPNPGVV	-0.076 ± 0.56
KRWTKNFDCFQTVMHIYCSQ	inactive
KRYSGDIDMTSREMGLFK	0.356 ± 0.16
KSAASILCTMNVSYRSNFLE	1.08 ± 0.37
KSCAHSYEFHHCNCAVVFTL	6.6 ± 0.051
KSERERRVLMQRSDECVKSF	-0.297 ± 0.5
KSFNVLCHIAVVPNRWVGRT	2.49 ± 0.13
KSHIIFSIWQRLFGGHRISK	0.413 ± 0.58
KSIRVNTMHRC	2.19 ± 0.3
KSITWSKGDFARSTLLVNIC	0.397 ± 0.43
KSLQRWRDRCRDHVLSAS	-0.083 ± 1
KSMKGRSLRLRLKRDPRKVA	-0.051 ± 0.4
KSSNLVYVHTAHQRGYYCNQ	0.3 ± 0.41
KTANGNCHENSQSDVFKSVS	0.346 ± 0.31
KTCFHNNLPKIGLPHHLHNG	-1.32 ± 1.9
KTFYFTQLYSDYRLFFETGK	0.558 ± 0.46
KTGTYWKSDGCVLWFGVKPA	0.32 ± 0.38
KTMMIGFNNMWGGVQ	3.34 ± 0.21
KVFQQGC	-0.165 ± 1.6
KVFYVLLHGSILSNRGMWQT	-0.725 ± 1.2
KVLNFNLSRACLLWDSFNSV	2.65 ± 0.19
KVVDNAYSSDSLYFVGLFFW	1.25 ± 0.84
KWGVCVLTHLGRYWLLLGCG	-0.145 ± 0.66
KWSWGGPRDMIFKDTLAGAR	inactive

Substance	amyloid nucleation score
KWVIGRTVLGRADVRWSSGR	1.58 ± 0.46
KYIYNPSPLGSREDDTKACR	0.937 ± 0.49
KYKRSYTLDHVFYMSSPGVR	0.824 ± 0.73
KYLPPQVSSGWI	1.01 ± 0.37
KYRASYRNHRDMGDSAVYGY	0.044 ± 0.26
KYWVGWAVSFCVWYLTRLWE	0.337 ± 0.67
KYWWY	0.265 ± 0.2
LAFTNRVVVWESWSAMAVRW	-0.173 ± 0.66
LAIFSMFALFSIFGWSNDFT	-0.309 ± 0.43
LAISL	-0.444 ± 0.36
LAIVGQACRGVVEHARVSGH	0.136 ± 0.41
LAKFESSEVACSLFFAISLA	-0.997 ± 0.94
LAKGGPL	-0.813 ± 0.54
LALLWDMPF	-2.19 ± 2.7
LALMFFNLKSCIFMSMWLFT	1.65 ± 0.57
LALPIFAFER	-0.839 ± 0.46
LAMFHSWGVGFATLGVKISE	1.04 ± 0.78
LAPASLSSSGYKNCFNRTVR	4.08 ± 0.11
LAQELGR	1.68 ± 0.73
LASSIFASFRTFVQPSVSGY	-0.146 ± 0.48
LCCRLMTTICPKLCSVLLMS	0.217 ± 0.28
LCEVRDCWVL	0.783 ± 0.41
LCFMLEKWHLF	-0.566 ± 1.1
LCGISSSCYVVGSLRVIWLS	0.147 ± 0.65
LCKPCLGY	0.639 ± 0.24

Substance	amyloid nucleation score
LCLGCGYGEETI	0.069 ± 0.37
LCLLPG	0.888 ± 0.5
LCLSCLWMGETRPRSNPVNL	6.24 ± 0.068
LCLVFVNLVLQRYGIASWYT	0.531 ± 0.3
LCMVAQLWYQPV	2.01 ± 0.16
LCVFVKAGVCWGRTVIRKSG	inactive
LDFMSLHN	0.218 ± 1
LDGGIIRRILVIVKCWGRCC	0.108 ± 0.2
LDHYDVSGNRMVL	-0.487 ± 0.27
LDIRVCRLPRSVFNR	-0.002 ± 1
LDLSSWGTVP	0.122 ± 0.44
LDMKSFEQLVKQLPCTWADD	0.222 ± 0.41
LDSDGVASYDTRMSIRWYIE	2 ± 0.49
LDWAWFYCSRNKRFSTILFR	0.138 ± 0.79
LDYSSRSPLTDLST	0.041 ± 0.65
LECYEVYRYRKCLCCIVCVC	0.633 ± 0.42
LEGVFAAALSNKMIRYIRDV	1.19 ± 0.53
LERYVSMRFSWWDSSKKNTW	4.18 ± 0.086
LFDNFIAHMGCSRIPYDSHS	-0.086 ± 0.3
LFFTGVHRKF	4.28 ± 0.064
LFHANQKHAGWSRASTLEAC	-0.954 ± 0.54
LFHCRSIDRNLYYRHAFLIY	0.466 ± 0.39
LFHLPSVYIWFYAT	6.723 ± 0.053
LFIDVSR	-0.021 ± 1.6
LFLCMDTYIYLNLNSGGYSG	4.8 ± 0.1

Substance	amyloid nucleation score
LFLHVSMVS	-1.31 ± 1.4
LFLKRGPSCTCLLRKSTIEH	0.182 ± 0.69
LFNGLYHLVMRVMWRRLV	-0.061 ± 1.2
LFRRRKITTVYIDKNAMLTS	inactive
LFVHFLTLSVISHYPRGN	inactive
LFVLKTWLRNSDWFRYDESQ	-0.094 ± 0.68
LFYLFPELMWDMQLCKVDGW	1.4 ± 0.44
LGFAA	-0.339 ± 1.3
LGFAW	0.003 ± 0.45
LGFQLFNQGWAQNSTPRFSY	-1.29 ± 1.9
LGGVSSVLFYSHFLQVLEWC	-1.12 ± 0.78
LGIFSNIYGFV	0.277 ± 0.45
LGLDGCSSMLEEDFCR	0.45 ± 0.52
LGLGQSGRV	-0.15 ± 0.71
LGLMTFFVWFNWG	-1.43 ± 1
LGRGSGYRVLVMYLSVHC	0.164 ± 0.29
LGRKKGFMTYSGLYYVRLWA	-0.81 ± 1.4
LGRRIPCNLEWHHLDGALTR	0.013 ± 0.36
LGRSENDI	1.19 ± 0.4
LGSRFMRV	0.635 ± 1.2
LGSVDIRAQCLVNMNMLLSS	0.308 ± 0.43
LGTKL	0.601 ± 0.63
LGTSEKGNRKNR	inactive
LGTVRVLEHEVVWHYVLEAR	0.485 ± 0.6
LGVMMFRCVL	3.79 ± 0.16

Substance	amyloid nucleation score
LGVPRVISCSCHLSVRNSAK	0.413 ± 0.9
LHAGHSSLNALAYSFRLHDR	0.775 ± 0.52
LHAGRDSAASGPRISIWKPM	0.077 ± 0.38
LHAYTLSYGLLVLSARSHEL	-0.01 ± 0.67
LHCARGLVRRNMSSSLRWLA	inactive
LHESVFSWSSKLSLRHGYLR	0.159 ± 0.7
LHIFLTLHNQHVWARNGGKL	0.603 ± 0.35
LHIIRRNRDSIAFVYWTV	0.756 ± 0.41
LHLFGQ	0.067 ± 0.38
LHMTFFTPVDLVVQRTDFRL	0.971 ± 0.52
LHRSQMIFMCLSVTYSAK	-0.209 ± 0.47
LHTAETGRLHNAYVILVVYC	inactive
LHVISGFYKCRTKRL	0.862 ± 0.32
LIAPGFPERCRQGRMYEF	-0.234 ± 1.2
LICNFRLSRYQSAVNVVYWV	0.802 ± 0.14
LIFNQLWWRKSMCLQVRPGQ	-1.25 ± 0.92
LIFRRGTALFVLPVARYRCA	-1.57 ± 1.8
LIGFAGRVYGAFLQVSMTWN	3.2 ± 0.15
LIGRIGDFLA	0.097 ± 0.72
LILSYAN	1.33 ± 0.66
LINDRPPSSAMERRNVATSS	0.096 ± 0.57
LIRMHTICVWDSSVIMSIMA	-0.354 ± 0.44
LISCIRFYCSVLGVDCTDSV	0.235 ± 0.39
LIYVLYLY	0.501 ± 0.55
LKAHPSVTSCPVRSLI	-0.281 ± 0.39

Substance	amyloid nucleation score
LKMFSRPCVMIKNRTGVR	0.452 ± 0.33
LKSSNVPTRNVMRYMPSAFE	-0.292 ± 0.59
LLATCVRVECY	1.58 ± 0.51
LLCFLFTK	3.32 ± 0.15
LLDKISNRPTQYGTTVPPVP	0.573 ± 0.45
LLFHSGWMMNGNPWACWYRE	1.89 ± 0.25
LLFTNEKHNSLVNQGTPEWC	0.13 ± 0.9
LLGRLVQCCRPWY	-1.17 ± 2.7
LLGYLAMCS	1.01 ± 0.23
LLIALFSW	1.34 ± 0.25
LLIVYYNVDITQCRWFTELC	-0.16 ± 0.58
LLLRSRSTRF	-0.233 ± 0.3
LLLTWFFPQHASRVNMSYSS	0.024 ± 0.39
LLLYDPREC	-1.46 ± 0.91
LLLYSGEFNS	-0.433 ± 0.39
LLNAAHIEGT	0.064 ± 0.59
LLNCLWDKMWTGLVRCIKNG	-0.075 ± 0.35
LLNVVCRARVWS	-0.241 ± 0.32
LLPGLIEWSVGLMCLIL	0.023 ± 0.9
LLPYSLMLRDLGFLKHYLGV	-0.264 ± 0.61
LLRCPYLNFGASMYLIRFCS	0.404 ± 0.53
LLRGTIFVNDRVTID	0.973 ± 0.59
LLRWFALGTYVSGWRWDERR	-0.179 ± 0.32
LLTDRRDSSSRNDTLVRKGM	2.23 ± 0.091
LLTSIPRRVIARVSEGFCCN	-0.311 ± 0.71

Substance	amyloid nucleation score
LLTTIGQTRMVIHKGIERNE	1.77 ± 0.14
LLVLYCALLMRLSGLGHAWG	-0.269 ± 0.51
LLVMVVMGCCA	0.163 ± 0.83
LLVPHYFLEL	0.222 ± 0.43
LLVRNMSNVVPLMFSIPSNV	0.458 ± 0.65
LLWISRTRPYWLLFSVWKLA	-0.107 ± 0.9
LLWTKFGYCYRIEWSAVWFF	-0.527 ± 0.52
LLYISSTVM	1.07 ± 0.38
LLYSMDRQVLMSAISLLSIT	0.903 ± 0.63
LMAYNLGRPFAPFNCNVMGR	-0.268 ± 0.98
LMHRFPSINRLHTAPMPRAT	0.58 ± 1.1
LMRRAAVFFAGSRAGSRCLT	-0.675 ± 0.4
LMRYALSIPRRAYVVRRLVM	0.444 ± 1.2
LMVFAIRDLNFRHTILQPVP	-0.081 ± 0.42
LMWKNSGNYKLRCYRVV	-0.065 ± 0.21
LNCNV	1.24 ± 0.76
LNCRGVLDRTKSRVSHNNES	3.38 ± 0.18
LNDNLGSMFSL	-0.772 ± 0.64
LNDPMAGRLNNVRSGCLDDV	-0.059 ± 0.43
LNFCSVRVMEEISMVWCMVF	4.24 ± 0.11
LNISQRRIYFWSYWLHHITY	-0.282 ± 0.6
LNLRGDRN	0.304 ± 0.29
LNNAKCKLVSIFHLGVWVGM	-1.12 ± 0.96
